Assay results published in patent publication US20240287484.

How the values were obtained:
Conditions in all cases: qPCR; 3 mM MgCl2, 37 C
[1] = system: T1, MG153-26 RT (uncultivated organism (metagenomic))
T1 sequence: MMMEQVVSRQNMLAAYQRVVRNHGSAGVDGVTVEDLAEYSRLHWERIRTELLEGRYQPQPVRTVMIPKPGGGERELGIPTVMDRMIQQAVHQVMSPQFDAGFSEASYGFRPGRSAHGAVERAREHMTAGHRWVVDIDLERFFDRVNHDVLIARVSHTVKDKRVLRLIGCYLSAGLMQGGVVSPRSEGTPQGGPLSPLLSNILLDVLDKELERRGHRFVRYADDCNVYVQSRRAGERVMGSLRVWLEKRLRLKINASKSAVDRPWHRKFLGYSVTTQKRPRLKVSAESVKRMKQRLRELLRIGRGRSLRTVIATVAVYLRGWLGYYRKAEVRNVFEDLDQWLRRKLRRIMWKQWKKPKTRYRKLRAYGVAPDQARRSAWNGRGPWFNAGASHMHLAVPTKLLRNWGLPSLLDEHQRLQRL

[2] = system: T2, MG153-50 RT (uncultivated organism (metagenomic))
T2 sequence: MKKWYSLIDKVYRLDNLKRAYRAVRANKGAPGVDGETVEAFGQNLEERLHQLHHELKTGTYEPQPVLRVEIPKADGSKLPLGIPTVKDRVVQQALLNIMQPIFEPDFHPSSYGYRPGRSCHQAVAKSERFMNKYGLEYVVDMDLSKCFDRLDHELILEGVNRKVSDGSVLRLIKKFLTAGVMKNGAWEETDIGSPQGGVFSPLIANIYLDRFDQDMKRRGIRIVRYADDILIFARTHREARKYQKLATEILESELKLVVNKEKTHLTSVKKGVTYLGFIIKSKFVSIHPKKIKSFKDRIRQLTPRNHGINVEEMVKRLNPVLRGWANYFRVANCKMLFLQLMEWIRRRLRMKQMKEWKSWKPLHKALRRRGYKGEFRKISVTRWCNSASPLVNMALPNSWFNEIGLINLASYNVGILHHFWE

[3] = system: T3, MG153-55 RT (uncultivated organism (metagenomic))
T3 sequence: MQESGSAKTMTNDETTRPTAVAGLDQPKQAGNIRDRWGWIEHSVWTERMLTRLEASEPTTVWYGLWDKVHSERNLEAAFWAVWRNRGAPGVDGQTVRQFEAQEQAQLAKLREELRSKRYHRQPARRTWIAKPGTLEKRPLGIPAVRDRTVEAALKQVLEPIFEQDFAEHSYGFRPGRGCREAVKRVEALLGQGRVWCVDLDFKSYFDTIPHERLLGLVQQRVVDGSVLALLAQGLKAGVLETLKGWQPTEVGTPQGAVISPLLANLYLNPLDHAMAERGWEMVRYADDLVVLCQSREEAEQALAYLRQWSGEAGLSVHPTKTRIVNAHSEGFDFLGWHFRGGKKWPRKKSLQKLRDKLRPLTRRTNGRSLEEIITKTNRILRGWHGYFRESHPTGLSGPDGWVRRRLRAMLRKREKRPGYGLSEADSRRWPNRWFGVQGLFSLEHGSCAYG

[4] = system: T4, MG153-56 RT (uncultivated organism (metagenomic))
T4 sequence: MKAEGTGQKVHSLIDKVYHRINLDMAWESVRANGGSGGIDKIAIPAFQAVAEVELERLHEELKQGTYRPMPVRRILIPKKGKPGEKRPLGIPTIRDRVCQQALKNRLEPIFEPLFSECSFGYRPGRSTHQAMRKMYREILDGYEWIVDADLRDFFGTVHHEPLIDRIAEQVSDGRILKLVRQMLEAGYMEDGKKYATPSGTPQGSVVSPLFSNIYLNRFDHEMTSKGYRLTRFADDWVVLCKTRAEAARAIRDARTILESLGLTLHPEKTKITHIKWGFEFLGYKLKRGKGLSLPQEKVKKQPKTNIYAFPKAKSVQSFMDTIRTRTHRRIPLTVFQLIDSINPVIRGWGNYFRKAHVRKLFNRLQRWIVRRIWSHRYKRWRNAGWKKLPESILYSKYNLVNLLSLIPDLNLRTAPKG

Measured: activity (fold over background)

200 nt RNA template annealed to DNA primer
> 10: all assays above
